Results published in article PMC7326950, “Hypoxanthine-Guanine Phosphoribosyltransferase/adenylate Kinase From Zobellia galactanivorans: A Bifunctional Catalyst for the Synthesis of Nucleoside-5′-Mono-, Di- and Triphosphates” (Frontiers in Bioengineering and Biotechnology, 2020).

B1: hypoxanthine-guanine phosphoribosyltransferase (HGPRT)/adenylate kinase (AMPK) from Zobellia galactanivorans (enzyme, UniProt G0LC40 1-368, looked up)
chain: MIKLHDKHFKPFLSEAQIKAAVKKVAEQVAADYKDETPIFVGVLNGAFMFISDFLKEYQYPCEVSFVKLSSYQGLTSTGIVETLLDVSENIEGRSVIILEDIIDTGRTLKKLVHLFSKANVKEFRVASLFYKSEVYNGEYTIDYVGIDIPDKFIVGYGLDYNELGRNLREVYQLNQKHMINLVLFGKPGAGKGTQAEFLKDKYNLKHISTGDLFRFNMKNDTELGKLAKSYIDRGDLVPDEVTIKMLQDAVEKNPEASGFIFDGFPRTVAQAEALDKFLATKDMKIDATIALEANDEVLIQRLLERGKVSGRSDDQDESKIRNRFDEYNEKTAPLKDFYENQGKFHSVNGIGAIDEITHRLGKVIEEL
notes: gene from GenScript cloned NheI-BamHI into pET28b(+); The vector encodes a thrombin cleavage site between the His6 tag and the enzyme; no cleavage is described, and the measured mass is compared with that of the His6-tagged protein (43.77 kDa); also called ZgHGPRT/AMPK; HGPRT/AMPK; source: E. coli BL21(DE3), purified (HisTrap FF, Superdex 200); not shown: His6, N-terminal, kept

How the values were obtained:
ZgHGPRT/AMPK = biological target: T1, ZgHGPRT/AMPK (Zobellia galactanivorans, UniProt G0LC40); test: steady-state kinetics, HPLC of IMP formation, non-linear regression; assay type: biochemical; conditions: HGPRT domain; apparent substrate inhibition at high Hyp; PRPP fixed at 5 mM; varied Hyp 0.5–17.2 mM; Mg2+
T1 construct: gene adkA; homodimer
Description: (§1) steady-state kinetics, HPLC of IMP formation, non-linear regression on ZgHGPRT/AMPK

[1] = substrate: O=P(O)(O)OC[C@H]1O[C@H](OP(=O)(O)OP(=O)(O)O)[C@H](O)[C@@H]1O; test: as above; assay type: biochemical, Zobellia galactanivorans; conditions: HGPRT domain; apparent; Hyp fixed at 5 mM; varied PRPP 0.5–17.2 mM; Mg2+
Description: as §1

[2] = substrate: O=c1[nH]cnc2nc[nH]c12; test: as above; assay type: biochemical, Zobellia galactanivorans; conditions: HGPRT domain; apparent; PRPP fixed at 5 mM; varied Hyp 0.5–17.2 mM; Mg2+
Description: as §1

purified protein = substrate: Nc1ncnc2c1ncn2[C@@H]1O[C@H](COP(=O)(O)O)[C@@H](O)[C@H]1O; test: purified protein; conditions: AMPK domain; apparent; ATP fixed at 3.2 mM; varied AMP 0.5–10 mM; Mg2+
[3] = biological target: the molecule itself; test: AUC; sedimentation velocity, 20 mM Tris-HCl pH 8, 20°C, 50,000 x g, profiles at 292 nm, c(s) by SEDFIT; protein 0.4 mg/ml
[4] = substrate: Nc1ncnc2c1ncn2[C@@H]1O[C@H](COP(=O)(O)OP(=O)(O)OP(=O)(O)O)[C@@H](O)[C@H]1O; test: steady-state kinetics, HPLC of ADP formation, non-linear regression; assay type: biochemical, Zobellia galactanivorans; conditions: AMPK domain; apparent; AMP fixed at 3.2 mM; varied ATP 0.5–10 mM; Mg2+
Description: steady-state kinetics, HPLC of ADP formation, non-linear regression on ZgHGPRT/AMPK

| Molecule | Value with variable substrate / Hyp^a (ZgHGPRT/AMPK) | Km [1] | kcat [1] | kcat/Km [1] | Km [2] | kcat [2] | kcat/Km [2] | Km (purified protein) | kcat (purified protein) | kcat/Km (purified protein) | stoichiometry N [3] | Km [4] | kcat [4] | kcat/Km [4] |
| --- | --- | --- | --- | --- | --- | --- | --- | --- | --- | --- | --- | --- | --- | --- |
| O=c1[nH]cnc2nc[nH]c12 [compound 1, hypoxanthine] | 11.12 ± 1.02 mM |  |  |  |  |  |  |  |  |  |  |  |  |  |
| B1 |  | 6.77 ± 0.41 mM | 2.82 ± 0.21 s⁻¹ | 420 M⁻¹ s⁻¹ | 1.01 ± 0.05 mM | 1.11 ± 0.06 s⁻¹ | 1100 M⁻¹ s⁻¹ | 8.02 ± 0.40 mM | 0.16 s⁻¹ | 20 M⁻¹ s⁻¹ | 2 | 0.77 ± 0.04 mM | 0.07 ± 0.003 s⁻¹ | 100 M⁻¹ s⁻¹ |
